According to ChEMBL document CHEMBL4433268, “Rational design of a SHP-2 targeted, fluorogenic peptide substrate” (Bioorg Med Chem Lett, 2019):

Experiments:
Details in all cases: Homo sapiens
[1] = substrate: CC[C@H](C)[C@H](NC(=O)[C@@H](NC(=O)[C@H](CC(=O)O)NC(=O)[C@H](CC(=O)O)NC(C)=O)[C@@H](C)O)C(=O)N[C@@H](Cc1cc(=O)oc2cc(OP(=O)(O)O)ccc12)C(=O)N[C@@H](CC(=O)O)C(=O)N[C@H](C(=O)N[C@@H](CC(C)C)C(=O)N[C@@H](CC(=O)O)C(N)=O)C(C)C
Description: (§1) Substrate activity at SHP2 (unknown origin) expressed in Escherichia coli BL21 (DE3) assessed as Kcat/Km ratio incubated for 60 mins by fluorescence based assay

[2] = substrate: CC[C@H](C)[C@H](NC(=O)[C@@H](NC(=O)[C@@H]1CCCN1C(=O)[C@H](CC(=O)O)NC(C)=O)[C@@H](C)O)C(=O)N[C@@H](Cc1cc(=O)oc2cc(OP(=O)(O)O)ccc12)C(=O)N1CCC[C@H]1C(=O)N[C@H](C(=O)N[C@@H](CC(C)C)C(=O)N[C@@H](CC(=O)O)C(N)=O)C(C)C
Description: as §1

[3] = substrate: CC[C@H](C)[C@H](NC(=O)[C@@H](NC(=O)[C@H](CC(=O)O)NC(=O)[C@H](CC(=O)O)NC(C)=O)[C@@H](C)O)C(=O)N[C@@H](Cc1cc(=O)oc2cc(OP(=O)(O)O)ccc12)C(=O)N[C@@H](CC(=O)O)C(=O)N[C@H](C(=O)N[C@@H](CC(C)C)C(=O)N[C@@H](CC(=O)O)C(N)=O)C(C)C; remark: listed apart in the source
Description: (§2) Substrate activity at SHP2 (unknown origin) expressed in Escherichia coli BL21 (DE3) assessed as Kcat incubated for 60 mins by fluorescence based assay

[4] = substrate: CC[C@H](C)[C@H](NC(=O)[C@@H](NC(=O)[C@@H]1CCCN1C(=O)[C@H](CC(=O)O)NC(C)=O)[C@@H](C)O)C(=O)N[C@@H](Cc1cc(=O)oc2cc(OP(=O)(O)O)ccc12)C(=O)N1CCC[C@H]1C(=O)N[C@H](C(=O)N[C@@H](CC(C)C)C(=O)N[C@@H](CC(=O)O)C(N)=O)C(C)C; remark: listed apart in the source
Description: as §2

[5] = substrate: CC[C@H](C)[C@H](NC(=O)[C@@H](NC(=O)[C@H](CC(=O)O)NC(=O)[C@H](CC(=O)O)NC(C)=O)[C@@H](C)O)C(=O)N[C@@H](Cc1cc(=O)oc2cc(OP(=O)(O)O)ccc12)C(=O)N[C@@H](CC(=O)O)C(=O)N[C@H](C(=O)N[C@@H](CC(C)C)C(=O)N[C@@H](CC(=O)O)C(N)=O)C(C)C; remark: listed apart in the source
Description: (§3) Substrate activity at SHP2 (unknown origin) expressed in Escherichia coli BL21 (DE3) assessed as Km incubated for 60 mins by fluorescence based assay

[6] = substrate: CC[C@H](C)[C@H](NC(=O)[C@@H](NC(=O)[C@@H]1CCCN1C(=O)[C@H](CC(=O)O)NC(C)=O)[C@@H](C)O)C(=O)N[C@@H](Cc1cc(=O)oc2cc(OP(=O)(O)O)ccc12)C(=O)N1CCC[C@H]1C(=O)N[C@H](C(=O)N[C@@H](CC(C)C)C(=O)N[C@@H](CC(=O)O)C(N)=O)C(C)C; remark: listed apart in the source
Description: as §3

B1: Tyrosine-protein phosphatase non-receptor type 11 (Homo sapiens), Q06124 (protein)
chain: MTSRRWFHPNITGVEAENLLLTRGVDGSFLARPSKSNPGDFTLSVRRNGAVTHIKIQNTGDYYDLYGGEKFATLAELVQYYMEHHGQLKEKNGDVIELKYPLNCADPTSERWFHGHLSGKEAEKLLTEKGKHGSFLVRESQSHPGDFVLSVRTGDDKGESNDGKSKVTHVMIRCQELKYDVGGGERFDSLTDLVEHYKKNPMVETLGTVLQLKQPLNTTRINAAEIESRVRELSKLAETTDKVKQGFWEEFETLQQQECKLLYSRKEGQRQENKNKNRYKNILPFDHTRVVLHDGDPNEPVSDYINANIIMPEFETKCNNSKPKKSYIATQGCLQNTVNDFWRMVFQENSRVIVMTTKEVERGKSKCVKYWPDEYALKEYGVMRVRNVKESAAHDYTLRELKLSKVGQGNTERTVWQYHFRTWPDHGVPSDPGGVLDFLEEVHHKQESIMDAGPVVVHCSAGIGRTGTFIVIDILIDIIREKGVDCDIDVPKTIQMVRSQRSGMVQTEAQYRFIYMAVQHYIETLQRRIEEEQKSKRKGHEYTNIKYSLADQTSGDQSPLPPCTPTPPCAEMREDSARVYENVGLMQQQKSFR
- kcat/Km [1]: 270 M⁻¹ s⁻¹
- kcat/Km [2]: 6 to 6.4 M⁻¹ s⁻¹
- kcat [3]: 0.059 s⁻¹
- kcat [4]: 0.0045 s⁻¹
- Km [5]: 220 µM
- Km [6]: 700 µM
